For the test, the target named is human serum albumin (HSA) (human) (UniProt P02768). Description: HSA-coupled agarose beads, washed with PBS, fluorescence plate reader (ex 480 nm, em 510 nm).

Results on one substance are retold here after patent US20150297680A1.

UniProt P02768, sequence (P02768 25-609 limits assumed): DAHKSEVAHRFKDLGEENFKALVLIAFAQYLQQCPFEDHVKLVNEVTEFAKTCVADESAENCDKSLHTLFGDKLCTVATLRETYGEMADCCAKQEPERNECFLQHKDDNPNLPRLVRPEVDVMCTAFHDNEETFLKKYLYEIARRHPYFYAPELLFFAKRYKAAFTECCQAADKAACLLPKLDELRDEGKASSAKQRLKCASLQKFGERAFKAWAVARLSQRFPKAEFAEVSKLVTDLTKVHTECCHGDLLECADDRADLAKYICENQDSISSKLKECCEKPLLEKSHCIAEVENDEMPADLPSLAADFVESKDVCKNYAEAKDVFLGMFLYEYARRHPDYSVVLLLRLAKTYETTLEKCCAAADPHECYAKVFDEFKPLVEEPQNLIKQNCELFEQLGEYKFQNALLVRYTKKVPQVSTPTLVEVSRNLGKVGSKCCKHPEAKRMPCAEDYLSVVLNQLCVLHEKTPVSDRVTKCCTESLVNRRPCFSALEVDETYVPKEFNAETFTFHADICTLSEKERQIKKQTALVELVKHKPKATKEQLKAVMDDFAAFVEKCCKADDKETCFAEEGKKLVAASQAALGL

The substance “palmitic acid-conjugated superfolder green fluorescent protein (sfGFP-Pal)” had a fold fluorescence of HSA-coupled beads against those with sfGFP-WT of 20 fold.
